T1: 3xFLAG-tagged DYRK4 (UniProt Q9NR20 1-520)
T1 construct: DYRK4; residues of F2A may remain at the C-terminus (surmise); also called 3xFLAG-DYRK4; source: 293T cells stably expressing CDC37-nanoKAZ, transiently transfected (pcDNA5/FRT/TO), in lysate
T1 sequence (looked up): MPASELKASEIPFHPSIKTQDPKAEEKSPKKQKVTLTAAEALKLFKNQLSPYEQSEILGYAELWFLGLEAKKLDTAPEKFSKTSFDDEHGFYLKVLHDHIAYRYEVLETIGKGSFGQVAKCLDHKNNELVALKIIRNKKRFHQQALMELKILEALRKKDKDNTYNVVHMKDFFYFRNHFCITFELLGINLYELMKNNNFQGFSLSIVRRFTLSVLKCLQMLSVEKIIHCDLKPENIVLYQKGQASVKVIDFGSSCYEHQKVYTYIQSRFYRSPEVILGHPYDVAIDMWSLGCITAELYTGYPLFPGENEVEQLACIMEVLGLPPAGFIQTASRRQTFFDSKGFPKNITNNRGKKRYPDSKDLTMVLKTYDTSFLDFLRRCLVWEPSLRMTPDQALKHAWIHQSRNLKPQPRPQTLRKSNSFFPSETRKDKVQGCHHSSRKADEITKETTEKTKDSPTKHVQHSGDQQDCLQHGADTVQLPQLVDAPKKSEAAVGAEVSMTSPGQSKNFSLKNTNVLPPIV

B1: CDC37-nanoKAZ (natural protein, UniProt Q16543 1-378, looked up)
chain: MVDYSVWDHIEVSDDEDETHPNIDTASLFRWRHQARVERMEQFQKEKEELDRGCRECKRKVAECQRKLKELEVAEGGKAELERLQAEAQQLRKEERSWEQKLEEMRKKEKSMPWNVDTLSKDGFSKSMVNTKPEKTEEDSEEVREQKHKTFVEKYEKQIKHFGMLRRWDDSQKYLSDNVHLVCEETANYLVIWCIDLEVEEKCALMEQVAHQTIVMQFILELAKSLKVDPRACFRQFFTKIKTADRQYMEGFNDELEAFKERVRGRAKLRIEKAMKEYEEEERKKRLGPGGLDPVEVYESLPEELQKCFDVKDVQMLQDAISKMDPTDAKYHMQRCIDSGLWVPNSKASEAKEGEEAGPGDPLLEAVPKTGDEKDVSV
notes: Kinase-specific co-chaperone CDC37; also called CDC37 fused with nanoKAZ; source: 293T cells stably expressing CDC37-nanoKAZ (pCAGIPuro vector), in lysate; not shown: nanoKAZ (luciferase reporter), C-terminal, kept
B2: nanoKAZ-HSP90β (natural protein)
chain: not shown
notes: HSP90β (HSP90AB1 gene product); Codon-optimized nanoKAZ (GenBank AB823628) fused to the amino-terminus of HSP90β; also called HSP90β fused with nanoKAZ; nanoKAZ-HSP90AB1; source: 293T cell line stably expressing nanoKAZ-HSP90β (pCAGIPuro vector), in lysate; not shown: nanoKAZ (luciferase reporter), N-terminal, kept

Assays:
Assay in all cases: ELISA; Lysates (HENG buffer: 50 mM HEPES-KOH pH 7.9, 150 mM NaCl, 20 mM Na2MoO4, 2 mM EDTA, 5% glycerol, 0.5% Triton X-100) of 293T cells stably expressing CDC37-nanoKAZ, nanoKAZ-HSP90β or nanoKAZ and transiently transfected with 3xFLAG-tagged kinases; 3xFLAG-kinase captured on 96-well plates coated with anti-FLAG M2, 4 °C for 3 h, washed; bound nanoKAZ fusion read by luminescence (Imax) with bis-coelenterazine, as …
Details in all cases: partners not purified
[1] = biological target: T2, 3xFLAG-DYRK1A (Y111F) (UniProt Q13627-1 1-763, Y111F)
T2 construct: DYRK1A with the autophosphorylation site Tyr111 substituted to Phe; Expressed upstream of F2A-EGFP as m2

[2] = biological target: T3, 3xFLAG-DYRK1A (Y159F) (UniProt Q13627-1 1-763, Y159F)
T3 construct: DYRK1A with the autophosphorylation site Tyr159 substituted to Phe; Expressed upstream of F2A-EGFP as m2

[3] = biological target: T4, 3xFLAG-DYRK1A (Y319F/Y321F) (UniProt Q13627-1 1-763, Y319F | Y321F)
T4 construct: Expressed upstream of F2A-EGFP as m2; also called Y319F/Y321F mutant; DYRK1A mutant

[4] = biological target: T5, 3xFLAG-tagged kinase-dead mutant of DYRK1A (K188R) (UniProt Q13627-1 1-763, K188R)
T5 construct: DYRK1A with Lys188 substituted to Arg; Expressed upstream of F2A-EGFP as m2; also called K188R mutant

[5] = biological target: T6, 3xFLAG-DYRK1A (Y145F/Y147F) (UniProt Q13627-1 1-763, Y145F | Y147F)
T6 construct: DYRK1A with the autophosphorylation sites Tyr145 and Tyr147 substituted to Phe; Expressed upstream of F2A-EGFP as m2

[6] = biological target: T1, 3xFLAG-tagged DYRK4

Row | Binder | fold stronger interaction than intact DYRK1A [1] | fold stronger interaction than intact DYRK1A [2] | fold stronger interaction than intact DYRK1A [3] | fold stronger interaction than intact DYRK1A [4] | fold stronger interaction than intact DYRK1A [5] | fold stronger interaction than 3xFLAG-DYRK1A [6]
1 | B1 | 1.4 fold | 8.4 fold | 8 fold | 17 fold | 2.4 fold | 102 fold
2 | B2 |  |  | 3.8 fold | 10 fold |  | 
